The values below come from publication PMC9918506, “Structural insights into pathogenic mechanism of hypohidrotic ectodermal dysplasia caused by ectodysplasin A variants” (Nature Communications, 2023).

The chains are these.
B3: EDA·A1 TNF homology domain (EDA·A1THD, residues 233–391), wild type (domain or fragment, human, UniProt Q92838 233-391, looked up)
chain: GPSGAADKAGTRENQPAVVHLQGQGSAIQVKNDLSGGVLNDWSRITMNPKVFKLHPRSGELEVLVDGTYFIYSQVEVYYINFTDFASYEVVVDEKPFLQCTRSIETGKTNYNTCYTAGVCLLKARQKIAVKMVHADISINMSKHTTFFGAIRLGEAPAS
notes: ectodysplasin A, splice form EDA·A1 (with Val307-Glu308), human, THD residues 233-391; Optimized cDNA in pMAL-c2x; MBP removed with 3C protease; Trimer in the crystal structure; also called WT EDA·A1THD; ectodysplasin A THD; source: E. coli BL21 CodonPlus (DE3), purified (amylose, Superdex 200, 3C cleavage, Mono-S, Superdex 200); not shown: MBP, N-terminal, cleaved

Series [1] addresses T1, EDA·A1 TNF homology domain (EDA·A1THD, residues 233-391) (human, UniProt Q92838 233-391).
T1 construct: ectodysplasin A, splice form EDA·A1, human, TNF homology domain, residues 233-391; MBP removed with 3C protease; codon-optimised cDNA in pMAL-c2x; Trimer in the crystal structure; also called EDATHD; ectodysplasin A; source: E. coli BL21 CodonPlus (DE3), purified (amylose beads, Superdex 200, Mono-S, Superdex 200 increase); not shown: MBP, N-terminal, cleaved
T1 sequence (looked up): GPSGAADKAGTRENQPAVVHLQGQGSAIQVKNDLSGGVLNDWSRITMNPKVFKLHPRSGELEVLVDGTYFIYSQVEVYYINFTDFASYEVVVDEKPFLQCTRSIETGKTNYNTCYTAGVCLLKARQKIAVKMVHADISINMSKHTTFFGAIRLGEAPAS
Kind of series: SEC; gel filtration on a Superdex 200 analytical column, fractions on SDS-PAGE; EDA·A1THD alone, EDAR_(CRDS) alone and the mixture. The conditions noted are these: both partners purified.

Series [2] concerns the target EDA·A1THD (residues 233–391) R276C (human, UniProt Q92838 233-391, R276C). As to the kind of experiment: SPR.
Series [3] addresses B3. As to the kind of experiment: SPR; WT and mutant EDA·A1THD immobilised on CM5 chips, EDAR_(CRDS) serially diluted and injected; Biacore 8K; 10 mM HEPES pH 7.5, 150 mM NaCl, 3 mM EDTA, 25 °C; steady-state analysis at equilibrium. To be noted: both partners purified.
Series [4] concerns the molecule itself. As to the kind of experiment: crystal structure; EDA·A1THD and EDAR_(CRDS) mixed at a molar ratio of 1:1; crystals in 25% PEG-6000, 0.1 M BICINE pH 9.0, 4 °C; 2.8 Å.

B1: EDAR cysteine-rich domains (EDAR_(CRDS), residues 30-150) (domain or fragment, human, UniProt Q9UNE0 30-150, looked up)
chain: NCGENEYYNQTTGLCQECPPCGPGEEPYLSCGYGTKDEDYGCVPCPAEKFSKGGYQICRRHKDCEGFFRATVLTPGDMENDAECGPCLPGYYMLENRPRNIYGMVCYSCLLAPPNTKECVG
notes: EDAR, human, N-terminal cysteine-rich domains, residues 30-150; MBP removed with 3C protease; also called EDAR ectodomain; source: Hi5 insect cells (baculovirus), secreted, purified (amylose beads, Mono-Q, Superdex 200); not shown: MBP, N-terminal, cleaved
In the case of B1, the binding result in series [1] is listed as “binds”.

B2: EDAR cysteine-rich domains (EDAR_(CRDS), residues 30–150), MBP tag removed (domain or fragment, human)
chain: GGSGGSGGSGGSNCGENEYYNQTTGLCQECPPCGPGEEPYLSCGYGTKDEDYGCVPCPAEKFSKGGYQICRRHKDCEGFFRATVLTPGDMENDAECGPCLPGYYMLENRPRNIYGMVCYSCLLAPPNTKECVG
notes: EDAR (ectodysplasin A receptor), human, cysteine-rich domains CRD1-CRD3, residues 30-150; Construct: EDAR signal peptide (residues 1-28), MBP, 3C site, linker, EDAR 30-150; That the linker stays on the protein after 3C cleavage follows only from the order in which the methods list the elements; also called ectodomains of EDAR; source: Hi5 insect cells (baculovirus), secreted, purified (amylose, …)
As to B2, the Kd in series [2] was found to be 35.9 nM; in series [3] it was 18.5 nM.
On to B3, for which, in series [4], the “stoichiometry N” value stood at 3.
